Tests used:
human CD3 [1] = target: T1, human CD3 (human, UniProt P07766 23-207; P04234 22-171; P09693 23-182); assay: cell-based or functional assay
[2] = target: T2, human prostate-specific membrane antigen (PSMA) (human, UniProt Q04609 1-750); assay: cell-based or functional assay
[3] = target: T2, human prostate-specific membrane …; assay: flow cytometry (FACS) on B16F10.9/PSMA cells
Description: (§1) Briefly, 2×10⁵ cells/well of human CD3-expressing Jurkat, cynomolgus T, or human PSMA-specific expressing cells were incubated with a serial dilution of bispecific antibodies for 30 min at 4° C. After incubation, cells were washed and a goat F(ab′)₂ anti-human Fcγ PE labeled secondary (Jackson Immunolabs) was added to the cells for an additional 30 min. Next, cells were washed, re-suspended in cold PBS+1% BSA and analyzed via flow cytometry on a BD FACS Canto II.
(§2) For FACS analysis, cells were gated by forward scatter height vs. forward scatter area for single events selection, followed by side and forward scatters. The EC₅₀ for cell binding titration was determined using Prism software. Values were calculated using 4-parameter non-linear regression analysis.

human CD3 [4] = target: T1, human CD3; assay: flow cytometry (FACS) on Jurkat cells
Description: as §1, §2

[5] = target: T3, soluble heterodimeric hCD3 mFc protein (human); assay: SPR at 37° C., antigen-capture format, MASS-1
T3 construct: Heterodimer of two different CD3 chains fused to mFc; the names of the subunits seem to have been lost in the printed text ('hCD3 mFc'); also called soluble heterodimeric CD3 protein; Soluble Human CD3
T3 sequence (P07766 23-126, chain 1 of 2): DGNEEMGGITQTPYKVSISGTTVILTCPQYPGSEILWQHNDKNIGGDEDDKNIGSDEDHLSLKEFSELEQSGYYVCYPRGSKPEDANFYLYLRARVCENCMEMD
T3 sequence (P04234 22-105, chain 2 of 2, further chain): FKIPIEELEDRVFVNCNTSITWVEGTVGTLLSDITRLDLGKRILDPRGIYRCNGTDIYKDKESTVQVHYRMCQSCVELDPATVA
Description: Measurements were conducted on a Sierra Sensors MASS-1 instrument.
In the antigen-capture format, the MASS-1 high-density amine sensor surface was derivatized with a goat anti-mouse IgG2a polyclonal antibody (Southern Biotech). Soluble heterodimeric CD3 protein was captured and the respective antibodies were injected over the captured antigen.
Kinetic association (kₐ) and dissociation (kd) rate constants were determined by processing and fitting the data to a 1:1 binding model using MASS-1 AnalyserR2 curve fitting software. Binding dissociation equilibrium constants (KD) and dissociative half-lives (t_{1/2}) were calculated from the kinetic rate constants as: KD (M)=kd/kₐ; and t_{1/2} (min) (In2/(60*kd).

cynomolgus CD3 = target: T4, cynomolgus CD3 (cynomolgus); assay: flow cytometry (FACS) on cynomolgus T cells
T4 construct: whole, on cells; also called CD3 on cynomolgus T cells; Cyno T-cells
T4 sequence (Q95LI5 22-198, chain 1 of 3): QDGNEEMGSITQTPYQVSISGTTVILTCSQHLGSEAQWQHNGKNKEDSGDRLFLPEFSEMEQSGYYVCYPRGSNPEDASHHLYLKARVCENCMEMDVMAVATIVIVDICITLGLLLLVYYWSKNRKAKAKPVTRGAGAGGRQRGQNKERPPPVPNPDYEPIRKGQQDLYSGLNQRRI
T4 sequence (Q95LI8 22-171, chain 2 of 3, further chain): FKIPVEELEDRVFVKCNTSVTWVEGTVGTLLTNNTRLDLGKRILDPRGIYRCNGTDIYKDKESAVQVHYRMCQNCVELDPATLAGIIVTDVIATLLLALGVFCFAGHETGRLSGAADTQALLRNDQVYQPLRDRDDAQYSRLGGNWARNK
T4 sequence (Q95LI7 23-181, chain 3 of 3, further chain): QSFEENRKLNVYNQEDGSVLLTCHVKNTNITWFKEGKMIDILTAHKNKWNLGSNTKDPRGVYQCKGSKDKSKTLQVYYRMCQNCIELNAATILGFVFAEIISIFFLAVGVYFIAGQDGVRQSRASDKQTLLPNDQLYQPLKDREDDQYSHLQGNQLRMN
Description: as §1, §2

T1 sequence (P07766 23-207 limits assumed, chain 1 of 3): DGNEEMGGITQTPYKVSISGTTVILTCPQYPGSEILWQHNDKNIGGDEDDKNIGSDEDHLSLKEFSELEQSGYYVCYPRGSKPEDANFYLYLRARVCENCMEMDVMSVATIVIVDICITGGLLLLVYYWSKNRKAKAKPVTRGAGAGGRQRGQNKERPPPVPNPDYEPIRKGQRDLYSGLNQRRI
T1 sequence (P04234 22-171 limits assumed, chain 2 of 3): as the sequence (Q95LI8 22-171, chain 2 of 3, further chain) above, with V5I, K15N, V20I, T32S, N33D, N34I, A64T, N74S, L83V, R141H counted along it
T1 sequence (P09693 23-182 limits assumed, chain 3 of 3): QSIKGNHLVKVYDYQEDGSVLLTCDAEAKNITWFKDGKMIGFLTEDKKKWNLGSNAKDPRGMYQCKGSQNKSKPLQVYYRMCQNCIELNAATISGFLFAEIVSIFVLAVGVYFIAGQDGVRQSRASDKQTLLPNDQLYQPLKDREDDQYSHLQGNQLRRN
T2 sequence (Q04609 whole entry): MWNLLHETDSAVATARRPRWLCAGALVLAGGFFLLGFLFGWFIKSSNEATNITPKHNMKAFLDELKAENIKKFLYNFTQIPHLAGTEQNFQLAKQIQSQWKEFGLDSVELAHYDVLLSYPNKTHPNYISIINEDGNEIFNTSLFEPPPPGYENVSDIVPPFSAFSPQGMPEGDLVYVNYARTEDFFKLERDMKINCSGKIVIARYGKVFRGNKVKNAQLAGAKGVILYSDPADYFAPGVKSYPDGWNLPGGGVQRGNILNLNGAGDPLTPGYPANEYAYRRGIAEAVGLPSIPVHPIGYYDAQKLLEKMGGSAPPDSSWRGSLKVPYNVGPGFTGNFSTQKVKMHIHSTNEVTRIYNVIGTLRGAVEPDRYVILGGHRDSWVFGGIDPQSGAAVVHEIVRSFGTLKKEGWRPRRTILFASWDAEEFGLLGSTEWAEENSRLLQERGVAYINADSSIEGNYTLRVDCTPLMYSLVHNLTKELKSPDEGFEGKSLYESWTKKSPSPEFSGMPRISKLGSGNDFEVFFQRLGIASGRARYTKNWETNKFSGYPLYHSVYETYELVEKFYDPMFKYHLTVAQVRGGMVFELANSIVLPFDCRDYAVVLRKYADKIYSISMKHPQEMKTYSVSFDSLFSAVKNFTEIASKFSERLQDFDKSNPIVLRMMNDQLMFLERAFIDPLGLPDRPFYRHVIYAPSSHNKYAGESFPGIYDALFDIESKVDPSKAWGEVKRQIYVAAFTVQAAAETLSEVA

Row | Binder | T cell activation EC50 [M] (percent CD69+ of CD2+ T cells) (human CD3 [1]) | 22RV1 Cell depletion EC50 [2] [nM] | C4-2 Cell depletion EC50 [2] [nM] | TrampC2.PSMA Cell depletion EC50 [2] [nM] | EC50 [3] [nM] | EC50 (human CD3 [4]) [nM] | Kd [5] [nM] | T1/2 [5] [min] | koff [5] [s⁻¹] | kon [5] [M⁻¹ s⁻¹] | EC50 (cynomolgus CD3) [nM]
1 | PSMA/CD3-001 (bispecific antibody, V domains shown, also called anti-PSMA x anti-CD3 bispecific antibody with anti-CD3 arm CD3-VH-G5) VH 1: QVQLVESGGGVVQPGRSLRLSCAASGFTFSSYGMHWVRQAPGKGLEWVAVISYAGNNKYYADSVKGRFTVSRDNSKKTLYLQMNSLRSEDTAVYYCAKDSYYDFLTDPDVLDIWGQGTMVTVSS VH 2: EVQLVESGGGLVQPGRSLRLSCAASGFTFDDYSMHWVRQAPGKGLEWVSGISWNSGSIGYADSVKGRFTISRDNAKNSLYLQMNSLRAEDTALYYCAKDGSGYGKFYYYGMDVWGQGTTVTVSS VL: not shown | 1.34e-11 | 0.00631 | 0.0215 | 0.0115 | 1.31 | ~1000 | – | – | – | – | –
2 | PSMA/CD3-002 (bispecific antibody, V domains shown, also called REGN4336; anti-PSMA x anti-CD3 bispecific antibody with anti-CD3 arm CD3-VH-G20) VH 1: QVQLVESGGGVVQPGRSLRLSCAASGFTFSSYGMHWVRQAPGKGLEWVAVISYAGNNKYYADSVKGRFTVSRDNSKKTLYLQMNSLRSEDTAVYYCAKDSYYDFLTDPDVLDIWGQGTMVTVSS VH 2: EVQLVESGGGLVQPGRSLRLSCAASGFTFDDYSMHWVRQAPGKGLEWVSGISWNSGSIGYADSVKGRFTISRDNAKNSLYLQMNSLRAEDTALYYCAKYGSGYGKFYYYGMDVWGQGTTVTVSS VL: not shown | 6.11e-12 | 0.00832 | 0.0139 | – | 2.09 | 210 | 334 | 2 | 0.00577 | 17300 | 6140
